Where two headings read alike, the source gives them in different places.
T1: soluble human IL-6 receptor (human, UniProt P08887 20-357)
T1 construct: also called hsIL-6R
T1 sequence: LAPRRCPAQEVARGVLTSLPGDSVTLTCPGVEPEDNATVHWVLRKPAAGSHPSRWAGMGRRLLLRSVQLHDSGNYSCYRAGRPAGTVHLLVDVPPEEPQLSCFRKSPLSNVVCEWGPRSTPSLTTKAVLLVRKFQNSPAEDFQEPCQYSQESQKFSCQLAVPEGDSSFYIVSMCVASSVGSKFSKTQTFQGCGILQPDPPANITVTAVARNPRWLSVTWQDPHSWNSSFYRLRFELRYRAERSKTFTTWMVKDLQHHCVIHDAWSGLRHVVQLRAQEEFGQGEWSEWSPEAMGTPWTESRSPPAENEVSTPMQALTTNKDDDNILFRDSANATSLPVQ

T2: human FcγRIIb extracellular domain with C-terminal His tag (human, UniProt P31994 43-217)
T2 construct: extracellular domain; also called FcgRIIb
T2 sequence (looked up): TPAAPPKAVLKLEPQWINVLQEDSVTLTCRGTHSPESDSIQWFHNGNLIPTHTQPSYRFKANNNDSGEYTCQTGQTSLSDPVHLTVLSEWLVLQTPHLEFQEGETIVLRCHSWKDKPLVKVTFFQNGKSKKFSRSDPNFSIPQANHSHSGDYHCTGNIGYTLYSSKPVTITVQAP

T3: human FcγRIIa type H extracellular domain with C-terminal His tag (human, UniProt P12318 34-217)
T3 construct: extracellular domain; also called FcγRIIaH; FcgRIIaH
T3 sequence (looked up): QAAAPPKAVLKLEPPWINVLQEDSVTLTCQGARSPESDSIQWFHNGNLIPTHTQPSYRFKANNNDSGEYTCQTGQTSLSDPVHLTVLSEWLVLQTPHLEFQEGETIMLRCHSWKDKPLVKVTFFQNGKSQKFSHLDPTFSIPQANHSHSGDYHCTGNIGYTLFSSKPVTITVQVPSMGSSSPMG

T4: human FcγRIIa type R extracellular domain with C-terminal His tag (human, UniProt P12318 34-217)
T4 construct: extracellular domain; also called FcγRIIaR; FcγRIIa(R)
T4 sequence (looked up): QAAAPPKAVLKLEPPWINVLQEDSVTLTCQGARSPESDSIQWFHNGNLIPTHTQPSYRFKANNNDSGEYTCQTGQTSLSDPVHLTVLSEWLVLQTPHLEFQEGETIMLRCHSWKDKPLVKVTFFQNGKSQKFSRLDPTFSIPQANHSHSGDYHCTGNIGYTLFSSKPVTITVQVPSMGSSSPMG

T5: human FcγRIIb extracellular domain with C-terminal His tag (human, UniProt P31994 43-217)
T5 construct: extracellular domain
T5 sequence (looked up): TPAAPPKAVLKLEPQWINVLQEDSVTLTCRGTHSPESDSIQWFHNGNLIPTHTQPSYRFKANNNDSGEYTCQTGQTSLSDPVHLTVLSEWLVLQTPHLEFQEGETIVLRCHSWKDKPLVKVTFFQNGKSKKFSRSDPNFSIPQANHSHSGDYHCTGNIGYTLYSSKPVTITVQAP


Columns and labels:
[1] = molecular target: T1, soluble human IL-6 receptor; assay: SPR (Biacore T100), antibody captured on a Protein A/G chip (CM5), human IL-6 receptor as analyte, 1.2 mM CaCl2, pH 7.4, 37 °C
Description: The interaction was analyzed in solutions at 1.2 mM and 3 μM calcium ion concentration, corresponding to high and low calcium ion concentration conditions, respectively. An appropriate amount of Protein A/G (Invitrogen) was immobilized onto a Sensor chip CM5 (GE Healthcare) by an amino coupling method, and antibodies of interest were captured onto the chip. The two types of running buffers used were: 20 mM ACES/150 mM NaCl/0.05% (w/v) Tween20/1.2 mM CaCl₂ (pH 7.4); and 20 mM ACES/150 mM NaCl/0.05% (w/v) Tween20/3 μM CaCl₂ (pH 7.4). These buffers were each used to dilute human IL-6 receptor. All measurements were carried out at 37° C.
Then, 10 mM glycine-HCl (pH 1.5) was injected at a flow rate of 30 μl/min for 30 seconds to regenerate the sensor chip.

[2] = molecular target: T2, human FcγRIIb extracellular domain with …; assay: SPR (Biacore)
[3] = molecular target: T3, human FcγRIIa type H extracellular …; assay: SPR (Biacore)
[4] = molecular target: T6, human FcγRIIIa type V extracellular domain with C-terminal His tag (human, UniProt P08637 17-208); assay: SPR (Biacore)
T6 construct: extracellular domain; also called FcγRIIIaV; FcgRIIIaV

[5] = molecular target: T4, human FcγRIIa type R extracellular …; assay: SPR (Biacore)
[6] = molecular target: T7, human FcγRIa extracellular domain with C-terminal His tag (human, UniProt P12314 16-292); assay: SPR (Biacore)
T7 construct: extracellular domain

[7] = molecular target: T5, human FcγRIIb extracellular domain with …; assay: SPR (Biacore)
[8] = molecular target: T5, human FcγRIIb extracellular domain with …; assay: SPR (Biacore), ratio of KDs
[9] = molecular target: T4, human FcγRIIa type R extracellular …; assay: SPR (Biacore); worded summary of Table 28
[10] = molecular target: T5, human FcγRIIb extracellular domain with …; assay: SPR (Biacore); worded summary of Table 28
[11] = molecular target: T4, human FcγRIIa type R extracellular …; assay: SPR (Biacore), parent IL6R-B3/IL6R-L
[12] = molecular target: T5, human FcγRIIb extracellular domain with …; assay: SPR (Biacore), parent IL6R-B3/IL6R-L

T7 sequence (P12314 16-292): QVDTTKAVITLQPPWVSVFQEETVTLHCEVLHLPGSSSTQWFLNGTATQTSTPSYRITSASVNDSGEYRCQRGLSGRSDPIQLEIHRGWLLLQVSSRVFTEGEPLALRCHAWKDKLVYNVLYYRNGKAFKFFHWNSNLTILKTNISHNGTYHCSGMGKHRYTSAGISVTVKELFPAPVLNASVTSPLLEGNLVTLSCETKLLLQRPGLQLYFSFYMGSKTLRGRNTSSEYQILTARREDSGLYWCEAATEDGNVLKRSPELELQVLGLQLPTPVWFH
T6 sequence (P08637 17-208 F176V): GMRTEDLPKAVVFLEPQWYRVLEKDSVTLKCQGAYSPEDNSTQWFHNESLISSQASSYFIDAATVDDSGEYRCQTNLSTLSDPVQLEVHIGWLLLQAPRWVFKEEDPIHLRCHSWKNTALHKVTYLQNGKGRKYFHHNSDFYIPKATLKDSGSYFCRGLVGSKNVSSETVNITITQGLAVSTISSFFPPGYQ

Row | Binder | binding result [1] | Kd [5] [nM] | Kd [6] [nM] | Kd [7] [nM] | KD(IIaH)/KD(IIb) [8] | KD(IIaR)/KD(IIb) [8] | FcγRIIaR binding as compared to IL6R-B3/IL6R-L [9] [times] | FcγRIIb-binding activity as compared to IL6R-B3/IL6R-L [10] [times] | KD(IIaR) parent/KD(IIaR) altered polypeptide [11] | KD(IIb) parent/KD(IIb) altered polypeptide [12] | other results
1 | tocilizumab (antibody, human IgG1, kappa, also called anti-IL-6R antibody (tocilizumab)) heavy: not shown light: not shown | binds |  |  |  |  |  |  |  |  |  | 
2 | 6RC1IgG_012 (antibody, V domains shown) VH: QVQLVQSGAEVKKPGASVKVSCKASGYTFTSYGISWVRQAPGQGLEWMGWISAYNGNTNYAQKLQGRVTMTTDTSTSTAYMELRSLRSDDTAVYYCARATYYYDSSAPAFDIWGQGTMVTVSS VL: DIQMTQSPSSLSASVGDRVTITCRASQSIEDDLAWYQQKPGKAPKLLIYEASTLQSGVPSRFSGSGSGTDFTLTISSLQPEDFATYYCQQHDDSPLTFGQGTKVEIKR | binds |  |  |  |  |  |  |  |  |  | 
3 | 6RC1IgG_010 (antibody, V domains shown) VH: QVQLVQSGAEVKKPGSSVKVSCKASGGTFSSYAISWVRQAPGQGLEWMGGIIPIFGTANYAQKFQGRVTITADESTSTAYMELSSLRSEDTAVYYCARAAFLEWPIWGSEYFQHWGQGTLVTVSS VL: DIQMTQSPSSLSASVGDRVTITCRASQSIEDDLAWYQQKPGKAPKLLIYHASSLQSGVPSRFSGSGSGTDFTLTISSLQPEDFATYYCQQRDSYPLTFGQGTKVEIKR | binds |  |  |  |  |  |  |  |  |  | 
4 | 6RC1IgG_019 (antibody, V domains shown) VH: EVQLVQSGAEVKKPGSSVKVSCKASGGTFSSYAISWVRQAPGQGLEWMGGIIPIFGTANYAQKFQGRVTITADESTSTAYMELSSLRSEDTAVYYCARDRGSGFNWGNYAFDIWGQGFSVTVSS VL: DIQMTQSPSSLSASVGDRVTITCRASQSIEDDLAWYQQKPGKAPKLLIYEASNLQSGVPSRFSGSGSGTDFTLTISSLQPEDFATYYCQQYDRYPYTFGQGTKVEIKR | binds |  |  |  |  |  |  |  |  |  | 
5 | IL6R-BP130/IL6R-L (antibody, human IgG1, kappa, EU numbering; alterations on IL6R-B3; copies: 2 + 2) heavy: QVQLQESGPGLVKPSETLSLTCAVSGHSISHDHAWSWVRQPPGEGLEWIGFISYSGITNYNPSLQGRVTISRDNSKNTLYLQMNSLRAEDTAVYYCARSLARTTAMDYWGEGTLVTVSSASTKGPSVFPLAPSSKSTSGGTAALGCLVKDYFPEPVTVSWNSGALTSGVHTFPAVLQSSGLYSLSSVVTVPSSSLGTQTYICNVNHKPSNTKVDKKVEPKSCDKTHTCPPCPAPDLLGGDSVFLFPPKPKDTLMISRTPEVTCVVVDVSHEDPEVKFNWYVDGVEVHNAKTKPREEQYNSTYRVVSVLTVLHQDWLNGKEYKCKMSNKALPKPIEKTISKAKGQPREPQVYTLPPSRDELTKNQVSLTCLVKGFYPSDIAVEWESNGQPENNYKTTPPVLDSDGSFFLYSKLTVDKSRWQQGNVFSCSVMHEALHNHYTQESLSLSP light: not shown |  |  |  |  |  |  |  |  |  |  | Kd [2]: 300 nM
6 | IL6R-BP148/IL6R-L (antibody, human IgG1, kappa, EU numbering; alterations on IL6R-B3; copies: 2 + 2) heavy: QVQLQESGPGLVKPSETLSLTCAVSGHSISHDHAWSWVRQPPGEGLEWIGFISYSGITNYNPSLQGRVTISRDNSKNTLYLQMNSLRAEDTAVYYCARSLARTTAMDYWGEGTLVTVSSASTKGPSVFPLAPSSKSTSGGTAALGCLVKDYFPEPVTVSWNSGALTSGVHTFPAVLQSSGLYSLSSVVTVPSSSLGTQTYICNVNHKPSNTKVDKKVEPKSCDKTHTCPPCPAPDYLGDDSVFLFPPKPKDTLMISRTPEVTCVVVDVSHEDPEVKFNWYVDGVEVHNAKTKPREEQYNSTYRVVSVLTVLHQDWLNGKEYKCKVSNAALPKPIEKTISKAKGQPREPQVYTLPPSRDELTKNQVSLTCLVKGFYPSDIAVEWESNGQPENNYKTTPPVLDSDGSFFLYSKLTVDKSRWQQGNVFSCSVMHEALHNHYTQESLSLSP light: not shown |  |  |  |  |  |  |  |  |  |  | Kd [3]: 7000 nM; Kd [4]: 30000 nM
7 | IL6R-BP492/IL6R-L (antibody, human IgG1, kappa, copies: 2 + 2) heavy: QVQLQESGPGLVKPSETLSLTCAVSGHSISHDHAWSWVRQPPGEGLEWIGFISYSGITNYNPSLQGRVTISRDNSKNTLYLQMNSLRAEDTAVYYCARSLARTTAMDYWGEGTLVTVSSASTKGPSVFPLAPSSKSTSGGTAALGCLVKDYFPEPVTVSWNSGALTSGVHTFPAVLQSSGLYSLSSVVTVPSSSLGTQTYICNVNHKPSNTKVDKKVEPKSCDKTHTCPPCPAPELLGGDSVFLFPPKPKDTLMISRTPEVTCVVIDVAEEDGEVKFNWYVDGVEVHNAKTKPREEQYNSTYRVVSVLTVLHQDWLNGKEYKCKVSNKALPAPIEKTISKAKGQPREPQVYTLPPSRDELTKNQVSLTCLVKGFYPSDIAVEWESNGQPENNYKTTPPVLDSDGSFFLYSKLTVDKSRWQQGNVFSCSVMHEALHNHYTQESLSLSP light: not shown |  | 920 | 0.79 | 24 | 678 | 38.8 | ≤ 1.5 | ≥ 100 | 1.2 | 131 | 
8 | IL6R-BP500/IL6R-L (antibody, human IgG1, kappa, copies: 2 + 2) heavy: QVQLQESGPGLVKPSETLSLTCAVSGHSISHDHAWSWVRQPPGEGLEWIGFISYSGITNYNPSLQGRVTISRDNSKNTLYLQMNSLRAEDTAVYYCARSLARTTAMDYWGEGTLVTVSSASTKGPSVFPLAPSSKSTSGGTAALGCLVKDYFPEPVTVSWNSGALTSGVHTFPAVLQSSGLYSLSSVVTVPSSSLGTQTYICNVNHKPSNTKVDKKVEPKSCDKTHTCPPCPAPELLGDDSVFLFPPKPKDTLMISRTPEVTCVVIDVAEEDGEVKFNWYVDGVEVHNAKTKPREEQDNSTYRVVSVLTVLHQDWLNGKEYKCKVSNKALPAPIEKTISKAKGQPREPQVYTLPPSRDELTKNQVSLTCLVKGFYPSDIAVEWESNGQPENNYKTTPPVLDSDGSFFLYSKLTVDKSRWQQGNVFSCSVMHEALHNHYTQESLSLSP light: not shown |  | 720 | 2.3 | 24 | 1030 | 29.9 | ≤ 1.5 | ≥ 100 | 1.5 | 128 | 
9 | IL6R-BP559/IL6R-L (antibody, human IgG1, kappa, copies: 2 + 2) heavy: QVQLQESGPGLVKPSETLSLTCAVSGHSISHDHAWSWVRQPPGEGLEWIGFISYSGITNYNPSLQGRVTISRDNSKNTLYLQMNSLRAEDTAVYYCARSLARTTAMDYWGEGTLVTVSSASTKGPSVFPLAPSSKSTSGGTAALGCLVKDYFPEPVTVSWNSGALTSGVHTFPAVLQSSGLYSLSSVVTVPSSSLGTQTYICNVNHKPSNTKVDKKVEPKSCDKTHTCPPCPAPELLGGDSVFLFPPKPKDTLMISRTPEVTCVVIDVAEEDGDVKFNWYVDGVEVHNAKTKPREEQDNSTYRVVSVLTVLHQDWLNGKEYKCKVSNKALPAPIEKTISKAKGQPREPQVYTLPPSRDELTKNQVSLTCLVKGFYPSDIAVEWESNGQPENNYKTTPPVLDSDGSFFLYSKLTVDKSRWQQGNVFSCSVMHEALHNHYTQESLSLSP light: not shown |  | 1600 | 1.1 | 28 | 712 | 58.4 | ≤ 1.5 | ≥ 100 | 0.7 | 110 | 

Reference: US20220389118A1 (Chugai, published 2022)
